Results from patent publication US20180155451A1 (published 2018).

Molecular target: T1, FcγRIIa R (human, UniProt P12318 34-217)
T1 construct: extracellular domain; also called FcgRIIa R type; 2aR
T1 sequence (looked up): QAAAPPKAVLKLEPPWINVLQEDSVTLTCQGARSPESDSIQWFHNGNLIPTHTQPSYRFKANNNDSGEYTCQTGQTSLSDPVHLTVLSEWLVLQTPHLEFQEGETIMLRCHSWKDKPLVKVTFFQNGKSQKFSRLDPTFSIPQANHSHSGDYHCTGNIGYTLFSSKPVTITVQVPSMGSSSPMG
Assay: SPR Biacore; vs GpH7-A5/GpH7-B3/GpL16-k0 =100

Binder	He/Con_2aR
GpH7-A5/GpH7-B3 variant K326_15Y/GpL16-k0 (antibody, human IgG1, kappa, also called He Ab K326_15Y) heavy 1: not shown heavy 2: not shown light: DIVMTQSPLSLPVTPGEPASISCQASESLVHSNRNTYLHWYLQKPGQSPQLLIYKVSNRFSGVPDRFSGSGSGTDFTLKISRVEAEDVGVYYCSQNTHVPPTFGQGTKVEIERTVAAPSVFIFPPSDEQLKSGTASVVCLLNNFYPREAKVQWKVDNALQSGNSQESVTEQDSKDSTYSLSSTLTLSKADYEKHKVYACEVTHQGLSSPVTKSFNRGEC	136 % of control
GpH7-A5/GpH7-B3 variant L234_10E/GpL16-k0 (antibody, human IgG1, kappa, also called He Ab L234_10E) heavy 1: not shown heavy 2: not shown light: DIVMTQSPLSLPVTPGEPASISCQASESLVHSNRNTYLHWYLQKPGQSPQLLIYKVSNRFSGVPDRFSGSGSGTDFTLKISRVEAEDVGVYYCSQNTHVPPTFGQGTKVEIERTVAAPSVFIFPPSDEQLKSGTASVVCLLNNFYPREAKVQWKVDNALQSGNSQESVTEQDSKDSTYSLSSTLTLSKADYEKHKVYACEVTHQGLSSPVTKSFNRGEC	112 % of control
GpH7-A5/GpH7-B3 variant L328_09D/GpL16-k0 (antibody, human IgG1, kappa, also called He Ab L328_09D) heavy 1: not shown heavy 2: not shown light: DIVMTQSPLSLPVTPGEPASISCQASESLVHSNRNTYLHWYLQKPGQSPQLLIYKVSNRFSGVPDRFSGSGSGTDFTLKISRVEAEDVGVYYCSQNTHVPPTFGQGTKVEIERTVAAPSVFIFPPSDEQLKSGTASVVCLLNNFYPREAKVQWKVDNALQSGNSQESVTEQDSKDSTYSLSSTLTLSKADYEKHKVYACEVTHQGLSSPVTKSFNRGEC	119 % of control
GpH7-A5/GpH7-B3 variant K334_02A/GpL16-k0 (antibody, human IgG1, kappa, also called He Ab K334_02A) heavy 1: not shown heavy 2: not shown light: DIVMTQSPLSLPVTPGEPASISCQASESLVHSNRNTYLHWYLQKPGQSPQLLIYKVSNRFSGVPDRFSGSGSGTDFTLKISRVEAEDVGVYYCSQNTHVPPTFGQGTKVEIERTVAAPSVFIFPPSDEQLKSGTASVVCLLNNFYPREAKVQWKVDNALQSGNSQESVTEQDSKDSTYSLSSTLTLSKADYEKHKVYACEVTHQGLSSPVTKSFNRGEC	105 % of control
GpH7-A5/GpH7-B3 variant K334_12R/GpL16-k0 (antibody, human IgG1, kappa, also called He Ab K334_12R) heavy 1: not shown heavy 2: not shown light: DIVMTQSPLSLPVTPGEPASISCQASESLVHSNRNTYLHWYLQKPGQSPQLLIYKVSNRFSGVPDRFSGSGSGTDFTLKISRVEAEDVGVYYCSQNTHVPPTFGQGTKVEIERTVAAPSVFIFPPSDEQLKSGTASVVCLLNNFYPREAKVQWKVDNALQSGNSQESVTEQDSKDSTYSLSSTLTLSKADYEKHKVYACEVTHQGLSSPVTKSFNRGEC	111 % of control
GpH7-A5/GpH7-B3 variant K334_10E/GpL16-k0 (antibody, human IgG1, kappa, also called He Ab K334_10E) heavy 1: not shown heavy 2: not shown light: DIVMTQSPLSLPVTPGEPASISCQASESLVHSNRNTYLHWYLQKPGQSPQLLIYKVSNRFSGVPDRFSGSGSGTDFTLKISRVEAEDVGVYYCSQNTHVPPTFGQGTKVEIERTVAAPSVFIFPPSDEQLKSGTASVVCLLNNFYPREAKVQWKVDNALQSGNSQESVTEQDSKDSTYSLSSTLTLSKADYEKHKVYACEVTHQGLSSPVTKSFNRGEC	106 % of control
GpH7-A5/GpH7-B3 variant K334_19Q/GpL16-k0 (antibody, human IgG1, kappa, also called He Ab K334_19Q) heavy 1: not shown heavy 2: not shown light: DIVMTQSPLSLPVTPGEPASISCQASESLVHSNRNTYLHWYLQKPGQSPQLLIYKVSNRFSGVPDRFSGSGSGTDFTLKISRVEAEDVGVYYCSQNTHVPPTFGQGTKVEIERTVAAPSVFIFPPSDEQLKSGTASVVCLLNNFYPREAKVQWKVDNALQSGNSQESVTEQDSKDSTYSLSSTLTLSKADYEKHKVYACEVTHQGLSSPVTKSFNRGEC	109 % of control
GpH7-A5/GpH7-B3 variant K334_13S/GpL16-k0 (antibody, human IgG1, kappa, also called He Ab K334_13S) heavy 1: not shown heavy 2: not shown light: DIVMTQSPLSLPVTPGEPASISCQASESLVHSNRNTYLHWYLQKPGQSPQLLIYKVSNRFSGVPDRFSGSGSGTDFTLKISRVEAEDVGVYYCSQNTHVPPTFGQGTKVEIERTVAAPSVFIFPPSDEQLKSGTASVVCLLNNFYPREAKVQWKVDNALQSGNSQESVTEQDSKDSTYSLSSTLTLSKADYEKHKVYACEVTHQGLSSPVTKSFNRGEC	109 % of control
GpH7-A5/GpH7-B3 variant K334_05P/GpL16-k0 (antibody, human IgG1, kappa, also called He Ab K334_05P) heavy 1: not shown heavy 2: not shown light: DIVMTQSPLSLPVTPGEPASISCQASESLVHSNRNTYLHWYLQKPGQSPQLLIYKVSNRFSGVPDRFSGSGSGTDFTLKISRVEAEDVGVYYCSQNTHVPPTFGQGTKVEIERTVAAPSVFIFPPSDEQLKSGTASVVCLLNNFYPREAKVQWKVDNALQSGNSQESVTEQDSKDSTYSLSSTLTLSKADYEKHKVYACEVTHQGLSSPVTKSFNRGEC	103 % of control
GpH7-A5/GpH7-B3 variant K334_08L/GpL16-k0 (antibody, human IgG1, kappa, also called He Ab K334_08L) heavy 1: not shown heavy 2: not shown light: DIVMTQSPLSLPVTPGEPASISCQASESLVHSNRNTYLHWYLQKPGQSPQLLIYKVSNRFSGVPDRFSGSGSGTDFTLKISRVEAEDVGVYYCSQNTHVPPTFGQGTKVEIERTVAAPSVFIFPPSDEQLKSGTASVVCLLNNFYPREAKVQWKVDNALQSGNSQESVTEQDSKDSTYSLSSTLTLSKADYEKHKVYACEVTHQGLSSPVTKSFNRGEC	106 % of control
GpH7-A5/GpH7-B3 variant L234_04F/GpL16-k0 (antibody, human IgG1, kappa, also called He Ab L234_04F) heavy 1: not shown heavy 2: not shown light: DIVMTQSPLSLPVTPGEPASISCQASESLVHSNRNTYLHWYLQKPGQSPQLLIYKVSNRFSGVPDRFSGSGSGTDFTLKISRVEAEDVGVYYCSQNTHVPPTFGQGTKVEIERTVAAPSVFIFPPSDEQLKSGTASVVCLLNNFYPREAKVQWKVDNALQSGNSQESVTEQDSKDSTYSLSSTLTLSKADYEKHKVYACEVTHQGLSSPVTKSFNRGEC	104 % of control
GpH7-A5/GpH7-B3 variant L235_20W/GpL16-k0 (antibody, human IgG1, kappa, also called He Ab L235_20W) heavy 1: not shown heavy 2: not shown light: DIVMTQSPLSLPVTPGEPASISCQASESLVHSNRNTYLHWYLQKPGQSPQLLIYKVSNRFSGVPDRFSGSGSGTDFTLKISRVEAEDVGVYYCSQNTHVPPTFGQGTKVEIERTVAAPSVFIFPPSDEQLKSGTASVVCLLNNFYPREAKVQWKVDNALQSGNSQESVTEQDSKDSTYSLSSTLTLSKADYEKHKVYACEVTHQGLSSPVTKSFNRGEC	131 % of control
GpH7-A5/GpH7-B3 variant K334_04F/GpL16-k0 (antibody, human IgG1, kappa, also called He Ab K334_04F) heavy 1: not shown heavy 2: not shown light: DIVMTQSPLSLPVTPGEPASISCQASESLVHSNRNTYLHWYLQKPGQSPQLLIYKVSNRFSGVPDRFSGSGSGTDFTLKISRVEAEDVGVYYCSQNTHVPPTFGQGTKVEIERTVAAPSVFIFPPSDEQLKSGTASVVCLLNNFYPREAKVQWKVDNALQSGNSQESVTEQDSKDSTYSLSSTLTLSKADYEKHKVYACEVTHQGLSSPVTKSFNRGEC	110 % of control
GpH7-A5/GpH7-B3 variant L235_04F/GpL16-k0 (antibody, human IgG1, kappa, also called He Ab L235_04F) heavy 1: not shown heavy 2: not shown light: DIVMTQSPLSLPVTPGEPASISCQASESLVHSNRNTYLHWYLQKPGQSPQLLIYKVSNRFSGVPDRFSGSGSGTDFTLKISRVEAEDVGVYYCSQNTHVPPTFGQGTKVEIERTVAAPSVFIFPPSDEQLKSGTASVVCLLNNFYPREAKVQWKVDNALQSGNSQESVTEQDSKDSTYSLSSTLTLSKADYEKHKVYACEVTHQGLSSPVTKSFNRGEC	114 % of control
GpH7-A5/GpH7-B3 variant K334_20W/GpL16-k0 (antibody, human IgG1, kappa, also called He Ab K334_20W) heavy 1: not shown heavy 2: not shown light: DIVMTQSPLSLPVTPGEPASISCQASESLVHSNRNTYLHWYLQKPGQSPQLLIYKVSNRFSGVPDRFSGSGSGTDFTLKISRVEAEDVGVYYCSQNTHVPPTFGQGTKVEIERTVAAPSVFIFPPSDEQLKSGTASVVCLLNNFYPREAKVQWKVDNALQSGNSQESVTEQDSKDSTYSLSSTLTLSKADYEKHKVYACEVTHQGLSSPVTKSFNRGEC	105 % of control
GpH7-A5/GpH7-B3 variant L235_15Y/GpL16-k0 (antibody, human IgG1, kappa, also called He Ab L235_15Y) heavy 1: not shown heavy 2: not shown light: DIVMTQSPLSLPVTPGEPASISCQASESLVHSNRNTYLHWYLQKPGQSPQLLIYKVSNRFSGVPDRFSGSGSGTDFTLKISRVEAEDVGVYYCSQNTHVPPTFGQGTKVEIERTVAAPSVFIFPPSDEQLKSGTASVVCLLNNFYPREAKVQWKVDNALQSGNSQESVTEQDSKDSTYSLSSTLTLSKADYEKHKVYACEVTHQGLSSPVTKSFNRGEC	129 % of control
GpH7-A5/GpH7-B3 variant L235_09D/GpL16-k0 (antibody, human IgG1, kappa, also called He Ab L235_09D) heavy 1: not shown heavy 2: not shown light: DIVMTQSPLSLPVTPGEPASISCQASESLVHSNRNTYLHWYLQKPGQSPQLLIYKVSNRFSGVPDRFSGSGSGTDFTLKISRVEAEDVGVYYCSQNTHVPPTFGQGTKVEIERTVAAPSVFIFPPSDEQLKSGTASVVCLLNNFYPREAKVQWKVDNALQSGNSQESVTEQDSKDSTYSLSSTLTLSKADYEKHKVYACEVTHQGLSSPVTKSFNRGEC	101 % of control
GpH7-A5/GpH7-B3 variant L234_20W/GpL16-k0 (antibody, human IgG1, kappa, also called He Ab L234_20W) heavy 1: not shown heavy 2: not shown light: DIVMTQSPLSLPVTPGEPASISCQASESLVHSNRNTYLHWYLQKPGQSPQLLIYKVSNRFSGVPDRFSGSGSGTDFTLKISRVEAEDVGVYYCSQNTHVPPTFGQGTKVEIERTVAAPSVFIFPPSDEQLKSGTASVVCLLNNFYPREAKVQWKVDNALQSGNSQESVTEQDSKDSTYSLSSTLTLSKADYEKHKVYACEVTHQGLSSPVTKSFNRGEC	108 % of control
GpH7-A5/GpH7-B3 variant K326_18N/GpL16-k0 (antibody, human IgG1, kappa, also called He Ab K326_18N) heavy 1: not shown heavy 2: not shown light: DIVMTQSPLSLPVTPGEPASISCQASESLVHSNRNTYLHWYLQKPGQSPQLLIYKVSNRFSGVPDRFSGSGSGTDFTLKISRVEAEDVGVYYCSQNTHVPPTFGQGTKVEIERTVAAPSVFIFPPSDEQLKSGTASVVCLLNNFYPREAKVQWKVDNALQSGNSQESVTEQDSKDSTYSLSSTLTLSKADYEKHKVYACEVTHQGLSSPVTKSFNRGEC	115 % of control
GpH7-A5/GpH7-B3 variant K326_20W/GpL16-k0 (antibody, human IgG1, kappa, also called He Ab K326_20W) heavy 1: not shown heavy 2: not shown light: DIVMTQSPLSLPVTPGEPASISCQASESLVHSNRNTYLHWYLQKPGQSPQLLIYKVSNRFSGVPDRFSGSGSGTDFTLKISRVEAEDVGVYYCSQNTHVPPTFGQGTKVEIERTVAAPSVFIFPPSDEQLKSGTASVVCLLNNFYPREAKVQWKVDNALQSGNSQESVTEQDSKDSTYSLSSTLTLSKADYEKHKVYACEVTHQGLSSPVTKSFNRGEC	131 % of control
GpH7-A5/GpH7-B3 variant L328_02A/GpL16-k0 (antibody, human IgG1, kappa, also called He Ab L328_02A) heavy 1: not shown heavy 2: not shown light: DIVMTQSPLSLPVTPGEPASISCQASESLVHSNRNTYLHWYLQKPGQSPQLLIYKVSNRFSGVPDRFSGSGSGTDFTLKISRVEAEDVGVYYCSQNTHVPPTFGQGTKVEIERTVAAPSVFIFPPSDEQLKSGTASVVCLLNNFYPREAKVQWKVDNALQSGNSQESVTEQDSKDSTYSLSSTLTLSKADYEKHKVYACEVTHQGLSSPVTKSFNRGEC	117 % of control
GpH7-A5/GpH7-B3 variant L234_09D/GpL16-k0 (antibody, human IgG1, kappa, also called He Ab L234_09D) heavy 1: not shown heavy 2: not shown light: DIVMTQSPLSLPVTPGEPASISCQASESLVHSNRNTYLHWYLQKPGQSPQLLIYKVSNRFSGVPDRFSGSGSGTDFTLKISRVEAEDVGVYYCSQNTHVPPTFGQGTKVEIERTVAAPSVFIFPPSDEQLKSGTASVVCLLNNFYPREAKVQWKVDNALQSGNSQESVTEQDSKDSTYSLSSTLTLSKADYEKHKVYACEVTHQGLSSPVTKSFNRGEC	122 % of control
